Consider two molecules from patent US20180371090A1.

For test [1], the target named is human CD3 on Jurkat cells (human) (UniProt P07766). Kind of test: flow cytometry on Jurkat cells, FITC anti-human IgG secondary. Background: Flow cytometry measures light scatter and fluorescence of single cells or particles in a stream.
Test [2] has as its target FcγRI and FcγRIIA on U937 cells. Put plainly: flow cytometry on U937 cells (FcγRI and FcγRIIA), FITC goat anti-human Fab secondary, MFI.
The target in test [3] is His-tagged human FcγRIIB (human) (UniProt P31994). Put plainly: SPR steady-state, His-captured receptor, 25 C.
Sequence of His-tagged human FcγRIIB (human) (P31994 46-217 limits assumed): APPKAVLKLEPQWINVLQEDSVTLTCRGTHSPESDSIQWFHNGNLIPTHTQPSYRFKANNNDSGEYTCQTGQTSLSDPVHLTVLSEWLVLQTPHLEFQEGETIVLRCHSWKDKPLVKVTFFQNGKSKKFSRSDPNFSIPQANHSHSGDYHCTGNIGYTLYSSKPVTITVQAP
Test [4] addresses His-tagged cynomolgus FcγRIIB (cynomolgus). Kind of test: SPR steady-state, His-captured receptor, 25 C.
Test [5] has as its target His-tagged cynomolgus FcγRIIA (cynomolgus). Kind of test: SPR steady-state, His-captured receptor, 25 C.
Test [6] addresses His-tagged cynomolgus FcγRIIIA (cynomolgus) (UniProt Q8SPW2). Put plainly: SPR steady-state, His-captured receptor, 25 C.
The target in test [7] is His-tagged human FcγRIIA (H131) (human) (UniProt P12318). Kind of test: SPR steady-state, His-captured receptor, 25 C.
Sequence of His-tagged human FcγRIIA (H131) (human) (P12318 36-218 limits assumed): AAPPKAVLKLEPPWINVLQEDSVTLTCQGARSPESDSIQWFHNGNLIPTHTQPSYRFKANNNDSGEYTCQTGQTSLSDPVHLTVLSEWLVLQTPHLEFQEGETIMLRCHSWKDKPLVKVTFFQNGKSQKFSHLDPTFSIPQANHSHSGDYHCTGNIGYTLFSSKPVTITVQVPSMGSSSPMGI
Test [8] addresses His-tagged human FcγRIIA (R131) (human) (UniProt P12318). Kind of test: SPR steady-state, His-captured receptor, 25 C.

Sequence of His-tagged human FcγRIIA (R131) (human) (P12318 36-218 H167R limits assumed): as the sequence (P12318 36-218 limits assumed) above, with H132R counted along it
Sequence of His-tagged cynomolgus FcγRIIIA (cynomolgus) (Q8SPW2 17-208 limits assumed): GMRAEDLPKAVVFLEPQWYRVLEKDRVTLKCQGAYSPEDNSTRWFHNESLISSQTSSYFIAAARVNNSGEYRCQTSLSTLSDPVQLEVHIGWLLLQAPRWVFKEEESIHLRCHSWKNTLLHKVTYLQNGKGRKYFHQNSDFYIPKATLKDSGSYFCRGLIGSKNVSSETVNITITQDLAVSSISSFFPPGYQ

B1: Antibody 1, sIgG4-anti-CD3_L2K (antibody, part only; not given: L2K light chain, part only)
heavy: DVQLVQSGAEVKKPGASVKVSCKASGYTFTRYTMHWVRQAPGQGLEWIGYINPSRGYTNYADSVKGRFTITTDKSTSTAYMELSSLRSEDTATYYCARYYDDHYCLDYWGQGTTVTVSSASTKGPSVFPLAPCSRSTSESTAALGCLVKDYFPEPVTVSWNSGALTSGVHTFPAVLQSSGLYSLSSVVTVPSSSLGTKTYTCNVDHKPSNTKVDKRVESKYGPPCPPCPAPPVAGPSVFLFPPKPKDTLMISRTPEVTCVVVDVSQEDPEVQFNWYVDGVEVHNAKTKPREEQFNSTYRVVSVLTVLHQDWLNGKEYKCKVSNKGLPSSIEKTISKAKGQPREPQVYTLPPSQEEMTKNQVSLTCLVKGFYPSDIAVEWESNGQPENNYKTTPPVLDSDGSFFLYSRLTVDKSRWQEGNVFSCSVMHEALHNHYTQKSLSLSLGK
What is called EC50 is the concentration at which the effect is half-maximal. The low end stands for an effect from little substance, the high end for a need for much substance. In test [1], B1 came in with a Geom. Mean:FITC-A of 1390. In test [2], the EC50 came out at 0.0335 µM.

B2: Antibody 4, anti-CD3 x anti-CD20 bispecific antibody with chimeric IgG4 constant regions (bispecific antibody, part only; not given: variable domains of both arms, not shown: another chain or arm of the molecule)
constant 1: ASTKGPSVFPLAPCSRSTSESTAALGCLVKDYFPEPVTVSWNSGALTSGVHTFPAVLQSSGLYSLSSVVTVPSSSLGTKTYTCNVDHKPSNTKVDKRVESKYGPPCPPCPAPPVAGPSVFLFPPKPKDTLMISRTPEVTCVVVDVSQEDPEVQFNWYVDGVEVHNAKTKPREEQFNSTYRVVSVLTVLHQDWLNGKEYKCKVSNKGLPSSIEKTISKAKGQPREPQVYTLPPSQEEMTKNQVSLTCLVKGFYPSDIAVEWESNGQPENNYKTTPPVLDSDGSFFLYSRLTVDKSRWQEGNVFSCSVMHEALHNHYTQKSLSLSLGK
constant 2: ASTKGPSVFPLAPCSRSTSESTAALGCLVKDYFPEPVTVSWNSGALTSGVHTFPAVLQSSGLYSLSSVVTVPSSSLGTKTYTCNVDHKPSNTKVDKRVESKYGPPCPPCPAPPVAGPSVFLFPPKPKDTLMISRTPEVTCVVVDVSQEDPEVQFNWYVDGVEVHNAKTKPREEQFNSTYRVVSVLTVLHQDWLNGKEYKCKVSNKGLPSSIEKTISKAKGQPREPQVYTLPPSQEEMTKNQVSLTCLVKGFYPSDIAVEWESNGQPENNYKTTPPVLDSDGSFFLYSRLTVDKSRWQEGNVFSCSVMHEALHNRFTQKSLSLSLGK
Broadly, the Kd is the equilibrium constant for the complex coming apart. B2: the dissociation constant (Kd) came out at 123 µM in test [3]; 13.9 µM in test [4]; 23.1 µM in test [5]; 66.3 µM in test [6]; 12 µM in test [7]; 19.3 µM in test [8].
